Where “and” joins values, the source holds several entries; their conditions need not be identical. Equal entries are not always repeated.
Columns and labels:
[1] = molecular target: Can f2-sumo-His (dog (Canis familiaris)) (UniProt O18874); assay: serum ELISA, 1:2K, Alpaca 1 block
[2] = molecular target: recombinant His-tagged Can f2 (dog (Canis familiaris)) (UniProt O18874); assay: serum ELISA, 1:2K, Alpaca 1 block
[3] = molecular target: T1, recombinant His-tagged Der p2 (dust mite, UniProt P49278 18-146); assay: serum ELISA, 1:2K, Alpaca 1 block
T1 construct: also called Der p2-His; Der p2-HIS; not shown: His tag
T1 sequence (looked up): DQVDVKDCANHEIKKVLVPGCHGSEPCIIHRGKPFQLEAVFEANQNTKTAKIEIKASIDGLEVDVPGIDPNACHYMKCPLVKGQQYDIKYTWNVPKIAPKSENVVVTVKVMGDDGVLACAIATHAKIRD

[4] = molecular target: recombinant His-tagged Can f1 (dog (Canis familiaris)) (UniProt O18873); assay: serum ELISA, 1:16K, Alpaca 1 block
Sequence of recombinant His-tagged Can f1 (dog (Canis familiaris)) (O18873 19-174 limits assumed): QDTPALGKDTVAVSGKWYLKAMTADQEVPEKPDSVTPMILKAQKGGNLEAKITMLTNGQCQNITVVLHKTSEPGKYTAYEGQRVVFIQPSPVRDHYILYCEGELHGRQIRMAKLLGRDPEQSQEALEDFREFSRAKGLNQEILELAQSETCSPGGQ

[5] = molecular target: recombinant His-tagged Can f2 (dog (Canis familiaris)) (UniProt O18874); assay: serum ELISA, 1:16K, Alpaca 1 block
[6] = molecular target: Can f2-sumo-His (dog (Canis familiaris)) (UniProt O18874); assay: serum ELISA, 1:2K, Alpaca 2 block
[7] = molecular target: recombinant His-tagged Can f1 (dog (Canis familiaris)) (UniProt O18873); assay: serum ELISA, 1:2K, Alpaca 2 block
[8] = molecular target: recombinant His-tagged Can f2 (dog (Canis familiaris)) (UniProt O18874); assay: serum ELISA, 1:2K, Alpaca 2 block
[9] = molecular target: T1, recombinant His-tagged Der p2; assay: serum ELISA, 1:2K, Alpaca 2 block
[10] = molecular target: Can f2-sumo-His (dog (Canis familiaris)) (UniProt O18874); assay: serum ELISA, 1:4k, Alpaca 2 block
[11] = molecular target: recombinant His-tagged Can f1 (dog (Canis familiaris)) (UniProt O18873); assay: serum ELISA, 1:4k, Alpaca 2 block
[12] = molecular target: recombinant His-tagged Can f2 (dog (Canis familiaris)) (UniProt O18874); assay: serum ELISA, 1:4k, Alpaca 2 block
[13] = molecular target: T1, recombinant His-tagged Der p2; assay: serum ELISA, 1:4k, Alpaca 2 block
[14] = molecular target: Can f2-sumo-His (dog (Canis familiaris)) (UniProt O18874); assay: serum ELISA, 1:64K, Alpaca 2 block
[15] = molecular target: recombinant His-tagged Can f1 (dog (Canis familiaris)) (UniProt O18873); assay: serum ELISA, 1:64K, Alpaca 2 block
[16] = molecular target: recombinant His-tagged Can f2 (dog (Canis familiaris)) (UniProt O18874); assay: serum ELISA, 1:64K, Alpaca 2 block
[17] = molecular target: T1, recombinant His-tagged Der p2; assay: serum ELISA, 1:64K, Alpaca 2 block
[18] = molecular target: Can f2-sumo-His (dog (Canis familiaris)) (UniProt O18874); assay: serum ELISA, 1:16K, Alpaca 2 block
[19] = molecular target: recombinant His-tagged Can f1 (dog (Canis familiaris)) (UniProt O18873); assay: serum ELISA, 1:16K, Alpaca 2 block
[20] = molecular target: recombinant His-tagged Can f2 (dog (Canis familiaris)) (UniProt O18874); assay: serum ELISA, 1:16K, Alpaca 2 block
[21] = molecular target: T1, recombinant His-tagged Der p2; assay: serum ELISA, 1:16K, Alpaca 2 block
[22] = molecular target: Can f2-sumo-His (dog (Canis familiaris)) (UniProt O18874); assay: serum ELISA, 1:32k, Alpaca 2 block
[23] = molecular target: recombinant His-tagged Can f1 (dog (Canis familiaris)) (UniProt O18873); assay: serum ELISA, 1:32k, Alpaca 2 block
[24] = molecular target: recombinant His-tagged Can f2 (dog (Canis familiaris)) (UniProt O18874); assay: serum ELISA, 1:32k, Alpaca 2 block
[25] = molecular target: T1, recombinant His-tagged Der p2; assay: serum ELISA, 1:32k, Alpaca 2 block
[26] = molecular target: Can f2-sumo-His (dog (Canis familiaris)) (UniProt O18874); assay: serum ELISA, 1:8K, Alpaca 1 block
[27] = molecular target: recombinant His-tagged Can f1 (dog (Canis familiaris)) (UniProt O18873); assay: serum ELISA, 1:8K, Alpaca 1 block
[28] = molecular target: recombinant His-tagged Can f2 (dog (Canis familiaris)) (UniProt O18874); assay: serum ELISA, 1:8K, Alpaca 1 block
[29] = molecular target: T1, recombinant His-tagged Der p2; assay: serum ELISA, 1:8K, Alpaca 1 block
[30] = molecular target: Can f2-sumo-His (dog (Canis familiaris)) (UniProt O18874); assay: serum ELISA, 1:32k, Alpaca 1 block
[31] = molecular target: recombinant His-tagged Can f1 (dog (Canis familiaris)) (UniProt O18873); assay: serum ELISA, 1:32k, Alpaca 1 block
[32] = molecular target: recombinant His-tagged Can f2 (dog (Canis familiaris)) (UniProt O18874); assay: serum ELISA, 1:32k, Alpaca 1 block
[33] = molecular target: T1, recombinant His-tagged Der p2; assay: serum ELISA, 1:32k, Alpaca 1 block
[34] = molecular target: Can f2-sumo-His (dog (Canis familiaris)) (UniProt O18874); assay: serum ELISA, 1:1K, Alpaca 2 block
[35] = molecular target: recombinant His-tagged Can f1 (dog (Canis familiaris)) (UniProt O18873); assay: serum ELISA, 1:1K, Alpaca 2 block
[36] = molecular target: recombinant His-tagged Can f2 (dog (Canis familiaris)) (UniProt O18874); assay: serum ELISA, 1:1K, Alpaca 2 block
[37] = molecular target: T1, recombinant His-tagged Der p2; assay: serum ELISA, 1:1K, Alpaca 2 block

Sequence of Can f2-sumo-His (dog (Canis familiaris)) (O18874 19-180): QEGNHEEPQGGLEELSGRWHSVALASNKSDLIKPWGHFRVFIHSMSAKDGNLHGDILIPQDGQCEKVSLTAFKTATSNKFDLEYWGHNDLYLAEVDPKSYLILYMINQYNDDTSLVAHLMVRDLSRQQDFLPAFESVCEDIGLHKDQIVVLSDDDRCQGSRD
Sequence of recombinant His-tagged Can f2 (dog (Canis familiaris)) (O18874 19-180 limits assumed): as the sequence (O18874 19-180) above

OD at 450 nm [1]: 0.088 OD and 0.085 OD
OD at 450 nm [2]: 0.093 OD and 0.099 OD
OD at 450 nm [3]: 0.149 OD and 0.154 OD
OD at 450 nm [4]: 0.101 OD and 0.11 OD
OD at 450 nm [5]: 0.075 OD and 0.076 OD
OD at 450 nm [6]: 0.119 OD and 0.113 OD
OD at 450 nm [7]: 0.185 OD and 0.179 OD
OD at 450 nm [8]: 0.143 OD and 0.133 OD
OD at 450 nm [9]: 0.152 OD and 0.15 OD
OD at 450 nm [10]: 0.09 OD and 0.081 OD
OD at 450 nm [11]: 0.122 OD
OD at 450 nm [12]: 0.108 OD and 0.101 OD
OD at 450 nm [13]: 0.113 OD
OD at 450 nm [14]: 0.07 OD and 0.057 OD
OD at 450 nm [15]: 0.088 OD and 0.087 OD
OD at 450 nm [16]: 0.07 OD and 0.062 OD
OD at 450 nm [17]: 0.071 OD and 0.079 OD
OD at 450 nm [18]: 0.074 OD and 0.081 OD
OD at 450 nm [19]: 0.101 OD and 0.098 OD
OD at 450 nm [20]: 0.08 OD and 0.075 OD
OD at 450 nm [21]: 0.091 OD and 0.089 OD
OD at 450 nm [22]: 0.071 OD and 0.061 OD
OD at 450 nm [23]: 0.091 OD and 0.093 OD
OD at 450 nm [24]: 0.075 OD and 0.068 OD
OD at 450 nm [25]: 0.082 OD
OD at 450 nm [26]: 0.072 OD
OD at 450 nm [27]: 0.116 OD and 0.117 OD
OD at 450 nm [28]: 0.076 OD
OD at 450 nm [29]: 0.104 OD and 0.099 OD
OD at 450 nm [30]: 0.056 OD and 0.057 OD
OD at 450 nm [31]: 0.102 OD and 0.107 OD
OD at 450 nm [32]: 0.069 OD and 0.062 OD
OD at 450 nm [33]: 0.099 OD and 0.081 OD
OD at 450 nm [34]: 0.186 OD and 0.181 OD
OD at 450 nm [35]: 0.228 OD and 0.218 OD
OD at 450 nm [36]: 0.227 OD and 0.241 OD
OD at 450 nm [37]: 0.201 OD and 0.19 OD
Substance: Negative serum taken from naïve alpacas

Source: patent US20240352105A1, “COMPOSITIONS AND METHODS FOR NEUTRALIZING ANTIGENS” (PACAGEN, INC, priority 2023, published 2024)
